Data from patent publication US20240117030A1 (Pfizer, published 2024).
Numbering of substitutions follows the chain as printed. Each block holds one binder with its values, some of them ahead of it.

Key:
Assay in all cases: cell-based or functional assay
human IL-4 = biological target: T1, human IL-4 (human, UniProt P05112 25-153)
T1 sequence (looked up): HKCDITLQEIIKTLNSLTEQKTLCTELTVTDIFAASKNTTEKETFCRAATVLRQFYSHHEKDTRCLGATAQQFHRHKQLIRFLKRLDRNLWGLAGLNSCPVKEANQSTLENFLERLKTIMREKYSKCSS

[1] = biological target: T2, recombinant human IL-33 (wild type, Ser112-Thr270) (human, UniProt O95760 112-270)
T2 sequence (looked up): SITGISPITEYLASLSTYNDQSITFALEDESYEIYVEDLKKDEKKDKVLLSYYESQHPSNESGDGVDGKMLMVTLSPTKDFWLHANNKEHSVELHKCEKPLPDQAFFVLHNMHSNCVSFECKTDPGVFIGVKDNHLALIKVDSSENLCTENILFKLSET

human IL-13 = human IL-13 (human, UniProt P35225 35-146)
human IL-13, sequence (P35225 35-146 limits assumed): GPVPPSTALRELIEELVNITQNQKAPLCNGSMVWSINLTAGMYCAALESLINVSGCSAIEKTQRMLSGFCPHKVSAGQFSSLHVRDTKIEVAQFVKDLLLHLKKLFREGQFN

recombinant human IL-13 = recombinant human IL-13 (human, UniProt P35225 35-146)
recombinant human IL-13, sequence (P35225 35-146 limits assumed): as above

IL-33 mm2 = biological target: T3, IL-33 mm2 (human, UniProt O95760 112-270, limits assumed)
T3 sequence (looked up): T2 sequence (looked up) with C97S, C116S, C121S, C148S

recombinant human IL-4 = biological target: T4, recombinant human IL-4 (human, UniProt P05112 25-153)
T4 sequence (looked up): T1 sequence (looked up)

- a-hIL-4 bioassay IC50, pM) (human IL-4): 16.5 pM
- a-IL-33 bioassay (WT IL33) IC50 (pM) [1]: 12 pM
- a-hIL-13 bioassay (IC50, pM) (human IL-13): 7.58 pM
B1: IL13433-1270 (other)
heavy: EVQLVESGGGLVQPGGSLRLSCAASGFTFSSYWMYWVRQAPGKGLEWVAAITPNAGEDYYPESVKGRFTISRDNAKNSLYLQMNSLRAEDTAVYYCARGQYYYTKYSLGYWGQGTLVTVSSASTKGPSVFPKAPSSKSTSGGTAALGCLVKDYFPEPVTVSWNSGALTSGVHTFPAVLQSSGLYSLSSSVTVPSSSLGTQTYICNVNHKPSNTKVDKKVEPKSCDKTHTCPPCPAPEAAGAPSVFLFPPKPKDTLMISRTPEVTCVVVDVSHEDPEVKFNWYVDGVEVHNAKTKPREEQYNSTYRVVSVLTVLHQDWLNGKEYKCKVSNKALPAPIEKTISKAKGQPREPQVCTLPPSREEMTKNQVSLWCLVKGFYPSDIAVEWESNGQPENNYKTTPPVLDSDGSFFLYSKLTVDKSRWQQGNVFSCSVLHEALHSHYTQKSLSLSPGK
chain 1: DIQMTQSPSSLSASVGDRVTITCKASESVDHFGWSLVHWYQQKPGKAPKLLIYRASNLESGVPSRFSGSGSGTDFTLTISSLQPEDFATYYCQQSNEDPWTFGGGTKVEIKRTVAAPSVFIFPPSDEQLKSGTASVVCLLNNFYPREAKVQWKVDNALQSGNSQESVTEQDSKDSTYSLSSTLTLSKADYEKHKVYACEVTHQGLSSPVTKSFNRGECGGGGSEVTLRESGPALVKPTQTLTLTCTFSGFSLSNFGEGLSWIRQPPGKGLEWLAHIYWDDDKRYNPSLKSRLTISKDTSRNQVVLTMTNMDPVDTATYYCARRETVFYWYFDVWGQGTTVTVSSASTKGPSVFPEAPSSKSTSGGTAALGCLVKDYFPEPVTVSWNSGALTSGVHTFPAVLQSSGLYSLGSVVTVPSSSLGTQTYICNVNHKPSNTKVDKKVEPKSCDKTHTCPPCPAPEAAGAPSVFLFPPKPKDTLMISRTPEVTCVVVDVSHEDPEVKFNWYVDGVEVHNAKTKPREEQYNSTYRVVSVLTVLHQDWLNGKEYKCKVSNKALPAPIEKTISKAKGQPREPQVYTLPPCREEMTKNQVSLSCAVKGFYPSDIAVEWESNGQPENNYKTTPPVLDSDGSFFLVSKLTVDKSRWQQGNVFSCSVLHEALHSHYTQKSLSLSPGK
light 1: DIQMTQSPSSLSASVGDRVTITCRASQPIHNHLDWYQQKPGKAPKLLIYFGKNLQEGVPSRFSGSGSGTDFTLTISSLQPEDFATYYCFQYKKGWSFGGGTKVEIKRTVAAPSVFIFPPSDEQLKSGTASVSCLLNNFYPREAKVQWKVDNALQSGNSQESVTEQDSKDSTYSLDSTLTLSKADYEKHKVYACEVTHQGLSSPVTKSFNRGEC
light 2: DIQMTQSPSSLSASVGDRVTITCRASQSVDEEGDSYMNWYQQKPGKAPKLLIYAASNLESGVPSRFSGSGSGTDFTLTISSLQPEDFATYYCQQSNKDPPTFGGGTKVEIKRTVAAPSVFIFPPSDEQLKSGTASVSCLLNNFYPREAKVQWKVDNALQSGNSQESVTEQDSKDSTYSLKSTLTLSKADYEKHKVYACEVTHQGLSSPVTKSFNRGEC
chain 2: EVQLVESGGGLVQPGGSLRLSCAASGFTFSSYAMSWVRQAPGKGLEWVASISSGDTTYYPDSVKGRFTISRDNAKNSLYLQMNSLRAEDTAVYYCARNEGYYFGLTLWGQGTLVTVSSASTKGPSVFPLAPSSKSTSGGTAALGCLVKDYFPEPVTVSWNSGALTSGVHTFPAVLQSSGLYSLSSVVTVPSSSLGTQTYICNVNHKPSNTKVDKKVEPKSC

- IL-13 Induced CD23 Expression, potency of cytokine neutralization (recombinant human IL-13): 12.5 pM
- IL-33 mm2 Cys Activation of SEAP Reporter Cells, potency of cytokine neutralization (IL-33 mm2): 45 pM
- IL-4 Induced CD23 Expression, potency of cytokine neutralization (recombinant human IL-4): 3.2 pM
B2: IL13433-0005 (other)
heavy: EVTLRESGPALVKPTQTLTLTCTFSGFSLSNFGEGLSWIRQPPGKGLEWLAHIYWDDDKRYNPSLKSRLTISKDTSRNQVVLTMTNMDPVDTATYYCARRETVFYWYFDVWGQGTTVTVSSASTKGPSVFPEAPSSKSTSGGTAALGCLVKDYFPEPVTVSWNSGALTSGVHTFPAVLQSSGLYSLGSVVTVPSSSLGTQTYICNVNHKPSNTKVDKKVEPKSCDKTHTCPPCPAPEAAGAPSVFLFPPKPKDTLMISRTPEVTCVVVDVSHEDPEVKFNWYVDGVEVHNAKTKPREEQYNSTYRVVSVLTVLHQDWLNGKEYKCKVSNKALPAPIEKTISKAKGQPREPQVYTLPPCREEMTKNQVSLSCAVKGFYPSDIAVEWESNGQPENNYKTTPPVLDSDGSFFLVSKLTVDKSRWQQGNVFSCSVMHEALHNHYTQKSLSLSPGK
chain 1: DIQMTQSPSSLSASVGDRVTITCKASQNINKHLDWYQQKPGKAPKLLIYFTNNLQTGVPSRFSGSGSGTDFTLTISSLQPEDFATYYCFQYNQGWTFGGGTKVEIKRTVAAPSVFIFPPSDEQLKSGTASVVCLLNNFYPREAKVQWKVDNALQSGNSQESVTEQDSKDSTYSLSSTLTLSKADYEKHKVYACEVTHQGLSSPVTKSFNRGECGGGGSEVQLVESGGGLVQPGGSLRLSCAASGFTFSSYAMSWVRQAPGKGLEWVASISSGDTTYYPDSVKGRFTISRDNAKNSLYLQMNSLRAEDTAVYYCARNEGYYFGLTLWGQGTLVTVSSASTKGPSVFPKAPSSKSTSGGTAALGCLVKDYFPEPVTVSWNSGALTSGVHTFPAVLQSSGLYSLSSSVTVPSSSLGTQTYICNVNHKPSNTKVDKKVEPKSCDKTHTCPPCPAPEAAGAPSVFLFPPKPKDTLMISRTPEVTCVVVDVSHEDPEVKFNWYVDGVEVHNAKTKPREEQYNSTYRVVSVLTVLHQDWLNGKEYKCKVSNKALPAPIEKTISKAKGQPREPQVCTLPPSREEMTKNQVSLWCLVKGFYPSDIAVEWESNGQPENNYKTTPPVLDSDGSFFLYSKLTVDKSRWQQGNVFSCSVMHEALHNHYTQKSLSLSPGK
light 1: B1 light 2 with R24K, E32D, K97E
light 2: DIQMTQSPSSLSASVGDRVTITCKASESVDHFGWSLVHWYQQKPGKAPKLLIYRASNLESGVPSRFSGSGSGTDFTLTISSLQPEDFATYYCQQSNEDPWTFGGGTKVEIKRTVAAPSVFIFPPSDEQLKSGTASVSCLLNNFYPREAKVQWKVDNALQSGNSQESVTEQDSKDSTYSLDSTLTLSKADYEKHKVYACEVTHQGLSSPVTKSFNRGEC
chain 2: EVQLVESGGGLVQPGGSLRLSCAASGFTFSSYWMYWVRQAPGKGLEWVAAITPNAGEDYYPESVKGRFTISRDNAKNSLYLQMNSLRAEDTAVYYCARGHYYYTSYSLGYWGQGTLVTVSSASTKGPSVFPLAPSSKSTSGGTAALGCLVKDYFPEPVTVSWNSGALTSGVHTFPAVLQSSGLYSLSSVVTVPSSSLGTQTYICNVNHKPSNTKVDKKVEPKSC
